Assay results published in PMC9482650, “Quantitative fragmentomics allow affinity mapping of interactomes” (Nature Communications, 2022).

T1: SNTA1, Q13424
T1 sequence (Q13424 82-180, limits assumed, looked up): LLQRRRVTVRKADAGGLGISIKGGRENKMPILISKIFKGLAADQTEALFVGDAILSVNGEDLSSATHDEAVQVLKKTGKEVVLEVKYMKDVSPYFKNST

T2: LIN7C, Q9NUP9
T2 sequence (Q9NUP9 88-185, limits assumed, looked up): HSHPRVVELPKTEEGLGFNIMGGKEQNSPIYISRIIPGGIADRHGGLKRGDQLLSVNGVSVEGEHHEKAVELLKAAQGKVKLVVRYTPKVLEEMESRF

T3: GRIP1_7, Q9Y3R0
T3 sequence (Q9Y3R0 999-1096, limits assumed, looked up): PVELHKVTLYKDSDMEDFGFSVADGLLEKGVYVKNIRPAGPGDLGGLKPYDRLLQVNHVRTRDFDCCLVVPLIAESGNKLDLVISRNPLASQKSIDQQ

T4: PARD3B_1, Q8TEW8
T4 sequence (Q8TEW8 196-299, limits assumed, looked up): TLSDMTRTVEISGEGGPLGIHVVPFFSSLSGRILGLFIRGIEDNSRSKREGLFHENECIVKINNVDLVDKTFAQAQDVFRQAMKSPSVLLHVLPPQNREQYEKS

T5: DFNB31_2, Q9P202
T5 sequence (Q9P202 274-371, limits assumed, looked up): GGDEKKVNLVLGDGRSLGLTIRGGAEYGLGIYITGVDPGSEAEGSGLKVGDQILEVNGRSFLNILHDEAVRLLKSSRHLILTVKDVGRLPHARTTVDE

T6: PDZD2_2, O15018
T6 sequence (O15018 329-429, limits assumed, looked up): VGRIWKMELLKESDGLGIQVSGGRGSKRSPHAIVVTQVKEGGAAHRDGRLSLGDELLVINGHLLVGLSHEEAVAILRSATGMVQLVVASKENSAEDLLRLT

T7: TX1BP3, O14907
T7 sequence (O14907 10-122, limits assumed, looked up): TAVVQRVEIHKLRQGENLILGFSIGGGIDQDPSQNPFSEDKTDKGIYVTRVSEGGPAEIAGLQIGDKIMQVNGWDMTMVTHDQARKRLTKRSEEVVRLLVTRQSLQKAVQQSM

T8: LNX2_3, Q8N448
T8 sequence (Q8N448 463-564, limits assumed, looked up): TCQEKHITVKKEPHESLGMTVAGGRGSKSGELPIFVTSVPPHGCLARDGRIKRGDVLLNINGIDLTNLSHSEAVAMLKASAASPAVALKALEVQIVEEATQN

T9: HTRA3, P83110
T9 sequence (P83110 354-453, limits assumed, looked up): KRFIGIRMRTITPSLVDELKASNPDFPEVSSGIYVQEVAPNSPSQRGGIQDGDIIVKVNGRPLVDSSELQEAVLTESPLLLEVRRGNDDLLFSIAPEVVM

T10: MPDZ_5, O75970
T10 sequence (O75970 695-796, limits assumed, looked up): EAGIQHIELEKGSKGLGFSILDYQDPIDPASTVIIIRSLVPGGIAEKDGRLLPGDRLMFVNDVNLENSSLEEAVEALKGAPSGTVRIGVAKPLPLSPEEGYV

T11: DLG3_1, Q92796
T11 sequence (Q92796 125-227, limits assumed, looked up): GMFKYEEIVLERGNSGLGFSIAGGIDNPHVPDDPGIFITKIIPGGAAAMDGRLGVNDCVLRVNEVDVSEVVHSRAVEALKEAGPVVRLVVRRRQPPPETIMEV

T12: ARHGEF11, O15085
T12 sequence (O15085 42-136, limits assumed, looked up): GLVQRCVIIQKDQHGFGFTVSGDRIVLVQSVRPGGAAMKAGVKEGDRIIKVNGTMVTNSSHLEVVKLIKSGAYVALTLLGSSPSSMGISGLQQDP


Columns and labels:
Test in all cases: holdup assay
Parameters in all cases: key: below the threshold = too weak to quantify, mostly under pKd 3.1 to 4
Settings in all cases: plain residues with an end cap or a label only (N-terminal biotin on a linker: ado-ado)
SNTA1, Q13424 = biological target: T1, SNTA1, Q13424
LIN7C, Q9NUP9 = biological target: T2, LIN7C, Q9NUP9
GRIP1_7, Q9Y3R0 = biological target: T3, GRIP1_7, Q9Y3R0
LAP2, Q96RT1 = biological target: LAP2, Q96RT1
FRMPD2_2, Q68DX3 = biological target: FRMPD2_2, Q68DX3
Inadl_3, Q8NI35 = biological target: Inadl_3, Q8NI35
GOPC, Q9HD26 = biological target: GOPC, Q9HD26
GRID2IP_2, A4D2P6 = biological target: GRID2IP_2, A4D2P6
SCRIB_2, Q14160 = biological target: SCRIB_2, Q14160
PARD3B_1, Q8TEW8 = biological target: T4, PARD3B_1, Q8TEW8
DFNB31_2, Q9P202 = biological target: T5, DFNB31_2, Q9P202
FRMPD4, Q14CM0 = biological target: FRMPD4, Q14CM0
PDZD2_2, O15018 = biological target: T6, PDZD2_2, O15018
TX1BP3, O14907 = biological target: T7, TX1BP3, O14907
LNX2_3, Q8N448 = biological target: T8, LNX2_3, Q8N448
TJP1_2, Q07157 = biological target: TJP1_2, Q07157
HTRA3, P83110 = biological target: T9, HTRA3, P83110
MPDZ_5, O75970 = biological target: T10, MPDZ_5, O75970
NHERF2_2, Q15599 = biological target: NHERF2_2, Q15599
GORASP2, Q9H8Y8 = biological target: GORASP2, Q9H8Y8
Inadl_1, Q8NI35 = biological target: Inadl_1, Q8NI35
Inadl_5, Q8NI35 = biological target: Inadl_5, Q8NI35
DLG3_1, Q92796 = biological target: T11, DLG3_1, Q92796
ARHGEF11, O15085 = biological target: T12, ARHGEF11, O15085

Chain of TJP1_2, Q07157 (Q07157 181-274): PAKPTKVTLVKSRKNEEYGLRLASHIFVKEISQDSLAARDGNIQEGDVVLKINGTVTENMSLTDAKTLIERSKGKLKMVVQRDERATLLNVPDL
Chain of FRMPD4, Q14CM0 (Q14CM0 67-160): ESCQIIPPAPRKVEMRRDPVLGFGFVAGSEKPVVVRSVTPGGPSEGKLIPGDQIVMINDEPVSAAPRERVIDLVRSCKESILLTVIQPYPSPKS
Chain of Inadl_5, Q8NI35 (Q8NI35 673-780): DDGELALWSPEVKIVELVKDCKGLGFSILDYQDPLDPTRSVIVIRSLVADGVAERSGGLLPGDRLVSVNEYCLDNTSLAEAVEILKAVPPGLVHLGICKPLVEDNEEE
Chain of Inadl_3, Q8NI35 (Q8NI35 359-469): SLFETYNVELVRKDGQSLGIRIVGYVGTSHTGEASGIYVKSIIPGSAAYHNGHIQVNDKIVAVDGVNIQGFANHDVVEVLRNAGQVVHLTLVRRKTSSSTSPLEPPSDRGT
Chain of FRMPD2_2, Q68DX3 (Q68DX3 944-1038): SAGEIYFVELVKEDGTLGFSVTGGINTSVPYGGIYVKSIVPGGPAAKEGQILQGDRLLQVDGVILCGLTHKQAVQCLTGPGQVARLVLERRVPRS
Chain of GRID2IP_2, A4D2P6 (A4D2P6 272-370): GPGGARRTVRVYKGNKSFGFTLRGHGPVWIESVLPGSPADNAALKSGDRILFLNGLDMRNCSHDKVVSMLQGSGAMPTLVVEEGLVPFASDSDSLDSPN
Chain of NHERF2_2, Q15599 (Q15599 142-238): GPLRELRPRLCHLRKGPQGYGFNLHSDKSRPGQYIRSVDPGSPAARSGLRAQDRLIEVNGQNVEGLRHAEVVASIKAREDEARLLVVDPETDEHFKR
Chain of Inadl_1, Q8NI35 (Q8NI35 113-229): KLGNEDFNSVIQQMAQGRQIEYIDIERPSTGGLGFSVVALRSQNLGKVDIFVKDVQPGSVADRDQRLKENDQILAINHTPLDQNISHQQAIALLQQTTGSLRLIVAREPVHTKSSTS
Chain of SCRIB_2, Q14160 (Q14160 857-960): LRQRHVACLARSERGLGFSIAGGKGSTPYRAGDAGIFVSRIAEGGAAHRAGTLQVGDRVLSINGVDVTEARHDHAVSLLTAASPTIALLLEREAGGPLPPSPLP
Chain of LAP2, Q96RT1 (Q96RT1 other isoform, or with tags, fused parts or gaps): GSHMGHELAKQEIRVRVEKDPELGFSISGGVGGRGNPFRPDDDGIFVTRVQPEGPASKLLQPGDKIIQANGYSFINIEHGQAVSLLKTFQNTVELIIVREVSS

Binder	pKd (SNTA1, Q13424)	pKd (LIN7C, Q9NUP9)	pKd (GRIP1_7, Q9Y3R0)	pKd (LAP2, Q96RT1)	pKd (FRMPD2_2, Q68DX3)	pKd (Inadl_3, Q8NI35)	pKd (GOPC, Q9HD26)	pKd (GRID2IP_2, A4D2P6)	pKd (SCRIB_2, Q14160)	pKd (PARD3B_1, Q8TEW8)	pKd (DFNB31_2, Q9P202)	pKd (FRMPD4, Q14CM0)	pKd (PDZD2_2, O15018)	pKd (TX1BP3, O14907)	pKd (LNX2_3, Q8N448)	pKd (TJP1_2, Q07157)	pKd (HTRA3, P83110)	pKd (MPDZ_5, O75970)	pKd (NHERF2_2, Q15599)	pKd (GORASP2, Q9H8Y8)	further results
FLVTEFNVML [DFNB31, Q9P202]	3.73	below the threshold	below the threshold	below the threshold	below the threshold	4.73	below the threshold	below the threshold	below the threshold	5.21	below the threshold	4.9	3.63	3.96	below the threshold	below the threshold	below the threshold	below the threshold	4.04	below the threshold	pKd (Inadl_1, Q8NI35): below the threshold; pKd (Inadl_5, Q8NI35): below the threshold; pKd (DLG3_1, Q92796): below the threshold; pKd (ARHGEF11, O15085): 3.95
PEKVSNTTVV [IGSF5, Q9NSI5]	3.93	below the threshold	below the threshold	below the threshold	below the threshold	3.48	3.61	below the threshold	below the threshold	below the threshold	below the threshold	below the threshold	4.06	below the threshold	below the threshold	below the threshold	below the threshold	below the threshold	below the threshold	4.33	pKd (Inadl_1, Q8NI35): below the threshold; pKd (Inadl_5, Q8NI35): below the threshold; pKd (DLG3_1, Q92796): 3.83; pKd (ARHGEF11, O15085): 4.24

More lines, main results first:

pKd (SNTA1, Q13424)	pKd (LIN7C, Q9NUP9)	pKd (GRIP1_7, Q9Y3R0)	pKd (LAP2, Q96RT1)	pKd (FRMPD2_2, Q68DX3)	pKd (Inadl_3, Q8NI35)	pKd (GOPC, Q9HD26)	pKd (GRID2IP_2, A4D2P6)	pKd (SCRIB_2, Q14160)	pKd (PARD3B_1, Q8TEW8)	pKd (DFNB31_2, Q9P202)	pKd (FRMPD4, Q14CM0)	pKd (PDZD2_2, O15018)	pKd (TX1BP3, O14907)	pKd (LNX2_3, Q8N448)	pKd (TJP1_2, Q07157)	pKd (HTRA3, P83110)	pKd (MPDZ_5, O75970)	pKd (NHERF2_2, Q15599)	pKd (GORASP2, Q9H8Y8)	Binder	further results
3.65	below the threshold	below the threshold	below the threshold	below the threshold	below the threshold	4.18	5.32	3.79	4.43	below the threshold	4.23	4.4	4.25	below the threshold	below the threshold	below the threshold	below the threshold	5.45	below the threshold	EAVTVESTSL [SLC22A11, Q9NSA0]	pKd (Inadl_1, Q8NI35): below the threshold; pKd (Inadl_5, Q8NI35): below the threshold; pKd (DLG3_1, Q92796): below the threshold; pKd (ARHGEF11, O15085): 4.95
below the threshold	below the threshold	3.48	below the threshold	below the threshold	below the threshold	below the threshold	below the threshold	below the threshold	below the threshold	below the threshold	below the threshold	below the threshold	4.1	below the threshold	below the threshold	below the threshold	below the threshold	below the threshold	3.67	AHGSTRDQSI [KCNB1, Q14721]	pKd (Inadl_1, Q8NI35): below the threshold; pKd (Inadl_5, Q8NI35): below the threshold; pKd (DLG3_1, Q92796): 3.68; pKd (ARHGEF11, O15085): 4.4
